Measurements from patent CN108003238A (VELOX PHARMACEUTICALS INC, dated 2018).

Experiments:
[1] = target: 小鼠CTLA4/CD152蛋白(His标签) (mouse) (UniProt P09793); test: ELISA, mouse CTLA-4 coated, anti-human Fc HRP detection
[2] = target: T1, Human CTLA-4/CD152 Protein (His Tag), Biotinylated (human, UniProt P16410 36-161, biotinylated (site not stated)); test: multi-cycle kinetics on OCTET, antibody captured on Protein A, CTLA-4 diluted 2-fold from 33 nM over 7 points
T1 construct: Bought recombinant protein; also called 人CTLA-4蛋白; 抗原; not shown: His tag
T1 sequence (looked up): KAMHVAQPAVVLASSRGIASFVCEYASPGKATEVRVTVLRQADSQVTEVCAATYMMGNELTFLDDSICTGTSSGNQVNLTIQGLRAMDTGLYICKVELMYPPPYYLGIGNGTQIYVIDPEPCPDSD

Chain of UniProt P09793 (P09793 36-161 limits assumed): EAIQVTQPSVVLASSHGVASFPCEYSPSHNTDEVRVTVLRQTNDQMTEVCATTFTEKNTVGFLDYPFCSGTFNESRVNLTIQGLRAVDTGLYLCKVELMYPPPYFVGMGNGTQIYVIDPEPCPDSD

B1: IgG1-6E2-CTLA-4 (antibody, V domains shown)
VH: QVQLVQSGAEVKKPGSSVKVSCKASGGTFSSYGISWVRQAPGQGLEWMGGIIPIFETSESAQKFQGRVTFTADKSSSTGYMELSSLRSEDTAIYYCARDPLHRSSSGTYYHYFMDVWGQGTMVTVSS
VL: QAVLTQPSSLSASPGASVSLTCTLRSGINVGAYRIYWYQQKPGSPPQFLLRYKSDSDKEQGRGVPSRFSGSKDASANAGILLISGLQSEDEADYYCMIWHNNAVFFGGGTKLTVLG
notes: also called 抗CTLA-4全人源单克隆抗体
[1]
  antibody concentration at which binding is still not saturated: > 8 ng/µL
[2]
  Kd: 1 pM
